In US10300107B2, “Compositions and methods for CaMKII inhibitors and uses thereof” (THE REGENTS OF THE UNIVERSITY OF COLORADO, priority 2007, dated 2019):

Tests used:
[1] = test system: CaMKII T-site mutants W237R and 1205K; experiment: Kinase assay with GFP-CaMKIIα T-site mutants; type: biochemical; settings: substrate syntide2
Description: In another example, FIG. 3. […] FIG. 3A represents a model of CaMKII kinase domain (Rosenberg et al., 2005) with the substrate binding S-site (indicated), the T286-region binding T-site (indicated), and the regulatory region (shown as ribbon). The arrow indicates the proposed orientation of CN21a binding to the T-site, when the regulatory region is displaced after activation. […] Results are normalized to maximal kinase activity without inhibitor. Error bars show s.e.m. […] Bound CaMKII was eluted and detected by Western blot.
CaMKII activity assays. Standard CaMKII assays were done for 1 min at 30° C. previously described, with 20 nM CaMKII (subunit, not holoenzyme concentration), 50 mM PIPES pH 7.2, 0.1 mg/ml BSA, 10 mM MgCl2, 100 μM [γ-^32P] ATP (˜1 Ci/mmol), 1 mM CaCl2, 1-2 μM CaM, and 30-60 μM AC2 peptide (or syntide2). The reactions were spotted onto Whatman P81 phosphocellulose paper rectangles (˜2×2.5 cm). To remove free radioactivity, the paper rectangles were rinsed and washed for 30 min under agitation in 0.5% phosphoric acid or water. […] Radioactivity of the bound peptides was quantified in a Beckman 6000TA scintillation counter by the Cherenkov method. Any changes of the standard protocol were done as indicated. For assays of the GFP-CaMKIIα mutants, kinase amounts were normalized by GFP fluorescence in the extract, and total protein was adjusted with Cos-7 extracts.

[2] = molecular target: T1, CaM dissociation from CaMKII (Homo sapiens, UniProt Q9UQM7); experiment: TA-CaM dissociation from CaMKII; type: binding; settings: 5 μM; 150 nM CaMKII, 30 nM TA-CaM
T1 construct: made in house; host or cells: baculovirus/Sf9 cells (CaMKII)
Protocol: TA-CaM dissociation was assessed by increased TA-CaM (30 nM) fluorescence after dissociation from CaMKII or its CaM-binding domain (CBD) (150 nM) during a chase with unlabeled CaM (60 μM). Buffer contained 50 mM Hepes pH 7.4, 150 mM KCl, 2 mM MgCl2, 2 mM MgADP, 2 mM CaCl2, and 0.1 mg/ml BSA. Fluorescence was measured in a time scan (1 sec samples) at 365 nm excitation and 415 nm emission wavelength on a spectro-fluorometer (Fluorolog3; Horiba Jobin Yvon) and was corrected for photobleach (FIG. 16).

activity of CaMKII T-site mutants W237R and 1205K compared to GFP-CaMKIIα wild type [1]: significantly less affected
CaM dissociation from CaMKII [2]: slowed down CaM dissociation from CaMKII
B1: CaM-KIIN: natural CaMKII inhibitor protein expressed in brain (protein, UniProt Q7Z7J9 1-78, looked up)
Calcium/calmodulin-dependent …: MSEVLPYGDEKLSPYGDGGDVGQIFSCRLQDTNNFFGAGQNKRPPKLGQIGRSKRVVIEDDRIDDVLKNMTDKAPPGV
